Square brackets hold non-standard residues; d marks the D form. Ends that are not written are not given here. pY = N[C@@H](Cc1ccc(OP(=O)(O)O)cc1)C(=O)O
Key:
[1] = molecular target: T1, GST-β3cyto (GST fusion protein of the integrin β3 cytoplasmic domain) (UniProt O54890); experiment: phage colonies recovered from β3-GST-coated wells divided by those from GST wells
T1 sequence: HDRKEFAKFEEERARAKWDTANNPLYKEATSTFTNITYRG

[2] = molecular target: T1, GST-β3cyto (GST fusion protein of the integrin β3 cytoplasmic domain); experiment: phage colonies recovered from β3-GST-coated wells divided by those from BSA wells
[3] = molecular target: Aminopeptidase A (APA, EC 3.4.11.7) on cells (UniProt Q07075); experiment: phage binding to SK-RC-49/APA cells in suspension, phage rescued and counted (not shown)
Aminopeptidase A (APA, EC 3.4.11.7) on cells (UniProt Q07075), sequence (Q07075 whole entry, the tested form may be a part): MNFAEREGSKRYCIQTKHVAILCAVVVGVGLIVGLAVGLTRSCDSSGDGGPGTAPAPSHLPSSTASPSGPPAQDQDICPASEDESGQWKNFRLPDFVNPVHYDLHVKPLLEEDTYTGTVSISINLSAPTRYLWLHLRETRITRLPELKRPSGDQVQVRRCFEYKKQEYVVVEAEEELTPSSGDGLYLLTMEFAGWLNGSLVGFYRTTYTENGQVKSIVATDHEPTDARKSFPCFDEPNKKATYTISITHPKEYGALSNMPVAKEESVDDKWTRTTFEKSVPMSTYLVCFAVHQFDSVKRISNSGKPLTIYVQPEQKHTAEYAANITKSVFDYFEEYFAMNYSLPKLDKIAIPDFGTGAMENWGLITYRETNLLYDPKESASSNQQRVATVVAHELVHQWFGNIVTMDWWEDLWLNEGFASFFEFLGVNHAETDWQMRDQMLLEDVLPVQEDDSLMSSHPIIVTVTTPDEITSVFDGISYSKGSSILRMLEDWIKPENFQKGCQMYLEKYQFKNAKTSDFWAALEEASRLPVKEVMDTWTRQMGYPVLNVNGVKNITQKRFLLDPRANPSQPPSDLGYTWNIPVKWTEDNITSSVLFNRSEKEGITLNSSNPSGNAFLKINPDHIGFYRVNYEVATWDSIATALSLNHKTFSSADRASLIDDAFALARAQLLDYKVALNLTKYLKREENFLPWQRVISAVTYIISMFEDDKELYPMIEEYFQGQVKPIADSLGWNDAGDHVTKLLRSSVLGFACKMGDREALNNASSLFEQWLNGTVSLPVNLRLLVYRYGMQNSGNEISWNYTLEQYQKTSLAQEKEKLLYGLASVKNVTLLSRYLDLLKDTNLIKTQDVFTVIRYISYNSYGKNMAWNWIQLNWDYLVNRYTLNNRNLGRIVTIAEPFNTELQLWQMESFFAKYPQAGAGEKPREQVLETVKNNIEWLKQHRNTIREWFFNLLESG

[4] = molecular target: GST-β5cyto (GST fusion protein of the integrin β5 cytoplasmic domain) (UniProt P18084); experiment: phage colonies recovered from β5-GST-coated wells divided by those from BSA wells
GST-β5cyto (GST fusion protein of the integrin β5 cytoplasmic domain), sequence (P18084 other isoform, or with tags, fused parts or gaps): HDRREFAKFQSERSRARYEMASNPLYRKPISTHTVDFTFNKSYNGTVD

[5] = molecular target: GST-β5cyto (GST fusion protein of the integrin β5 cytoplasmic domain) (UniProt P18084); experiment: phage colonies recovered from β5-GST-coated wells divided by those from GST wells
[6] = molecular target: T1, GST-β3cyto (GST fusion protein of the integrin β3 cytoplasmic domain); experiment: β3 colonies divided by GST colonies after panning
[7] = molecular target: T1, GST-β3cyto (GST fusion protein of the integrin β3 cytoplasmic domain); experiment: colonies of Fyn-phosphorylated phage divided by those of unphosphorylated phage bound to the β3 cytoplasmic domain
[8] = molecular target: T1, GST-β3cyto (GST fusion protein of the integrin β3 cytoplasmic domain); experiment: β3 colonies divided by BSA colonies after panning
[9] = molecular target: GST-β5cyto (GST fusion protein of the integrin β5 cytoplasmic domain) (UniProt P18084); experiment: β5 colonies divided by GST colonies after panning
[10] = molecular target: GST-β5cyto (GST fusion protein of the integrin β5 cytoplasmic domain) (UniProt P18084); experiment: colonies of Fyn-phosphorylated phage divided by those of unphosphorylated phage bound to the β5 cytoplasmic domain
[11] = molecular target: GST-β5cyto (GST fusion protein of the integrin β5 cytoplasmic domain) (UniProt P18084); experiment: β5 colonies divided by BSA colonies after panning
[12] = molecular target: GST-β5cyto (GST fusion protein of the integrin β5 cytoplasmic domain) (UniProt P18084); experiment: competition ELISA on GST-β5-coated plates, in the presence of calcium
[13] = molecular target: GST-β5cyto (GST fusion protein of the integrin β5 cytoplasmic domain) (UniProt P18084); experiment: competition ELISA on GST-β5-coated plates, in the absence of calcium
[14] = molecular target: Aminopeptidase A (APA, EC 3.4.11.7) on cells (UniProt Q07075 1-957, limits assumed); experiment: cell-based or functional assay
Aminopeptidase A (APA, EC 3.4.11.7) on cells (UniProt Q07075 1-957, limits assumed), sequence (Q07075 whole entry): as the sequence (Q07075 whole entry, the tested form may be a part) above

B1: phage displaying … (SEQ ID NO:93) (peptide)
peptide: CEQRQTQEGC
β3/GST Ratio [1]: 4.3
β3/BSA Ratio [2]: 14

B2: phage displaying … (SEQ ID NO:97) (peptide)
peptide: SDNRYIGSW
β3/GST Ratio [1]: 3.3
β3/BSA Ratio [2]: 32

B3: phage displaying … (SEQ ID NO:125) (peptide)
peptide: CYNLCIRECESICGADGACWTWCADGCSRSC
fold enrichment relative to SK-RC-49 parental cells [3]: 6 fold

B4: phage displaying … (SEQ ID NO:127) (peptide)
peptide: CPKVCPRECESNC
fold enrichment relative to SK-RC-49 parental cells [3]: 6 fold

B5: phage displaying … (SEQ ID NO:126) (peptide)
peptide: CLGQCASICVNDC
fold enrichment relative to SK-RC-49 parental cells [3]: 6 fold

B6: phage displaying … (SEQ ID NO:98) (peptide)
peptide: YEWWYWSWA
β3/GST Ratio [1]: 2.2
β3/BSA Ratio [2]: 28.1

B7: phage displaying … (SEQ ID NO:99) (peptide)
peptide: KVSWYLDNG
β3/GST Ratio [1]: 2.1
β3/BSA Ratio [2]: 20

B8: phage displaying … (SEQ ID NO:100), selected on β3 (peptide)
peptide: SDWYYPWSW
β3/GST Ratio [1]: 2.1
β3/BSA Ratio [2]: 157

B9: phage displaying CFQNRC (SEQ ID NO:102) (peptide)
peptide: CFQNRC
β3/GST Ratio [1]: 3.1
β3/BSA Ratio [2]: 16

B10: phage displaying CNLSSEQC (SEQ ID NO:103) (peptide)
peptide: CNLSSEQC
β3/GST Ratio [1]: 2.7
β3/BSA Ratio [2]: 62

B11: phage displaying … (SEQ ID NO:104) (peptide)
peptide: CLRQSYSYNC
β3/GST Ratio [1]: 2.4
β3/BSA Ratio [2]: 3.2

B12: phage displaying … (SEQ ID NO:105) (peptide)
peptide: CYIWPDSGLC
β5/BSA Ratio [4]: 193
β5/GST Ratio [5]: 5.2

B13: phage displaying … (SEQ ID NO:106) (peptide)
peptide: CEPYWDGWFC
β5/BSA Ratio [4]: 400
β5/GST Ratio [5]: 3.1

B14: phage displaying … (SEQ ID NO:94) (peptide)
peptide: CARLEVLLPC
β3/GST Ratio [1]: 2.8
β3/BSA Ratio [2]: 18.7

B15: phage displaying … (SEQ ID NO:109) (peptide)
peptide: CWDQNYLDDC
β5/BSA Ratio [4]: 100
β5/GST Ratio [5]: 1.5

B16: phage displaying … (SEQ ID NO:110) (peptide)
peptide: DEEGYYMMR
β5/BSA Ratio [4]: 29
β5/GST Ratio [5]: 11.5

B17: phage displaying … (SEQ ID NO:111) (peptide)
peptide: KQFSYRYLL
β5/BSA Ratio [4]: 8
β5/GST Ratio [5]: 4.5

B18: phage displaying … (SEQ ID NO:112) (peptide)
peptide: VVISYSMPD
β5/BSA Ratio [4]: 28
β5/GST Ratio [5]: 3.8

B19: phage displaying … (SEQ ID NO:113), selected on β5 (peptide)
peptide: SDWYYPWSW
β5/BSA Ratio [4]: 304
β5/GST Ratio [5]: 2.4

B20: phage displaying … (SEQ ID NO:95) (peptide)
peptide: YDWWYPWSW
β3/GST Ratio [1]: 5.6
β3/BSA Ratio [2]: 163

B21: Fyn-phosphorylated phage displaying … (SEQ ID NO:116) (peptide)
peptide: RAIL[pY]RLAN
modifications: also: tyrosine phosphorylated in vitro with Fyn kinase
β3 or β5/GST [6]: 1.3
Phos/Unphos [7]: 2.8
β3 or β5/BSA [8]: 20

B22: phage displaying … (SEQ ID NO:96) (peptide)
peptide: GLDTYRGSP
β3/GST Ratio [1]: 4.1
β3/BSA Ratio [2]: 48

B23: Fyn-phosphorylated phage displaying … (SEQ ID NO:121) (peptide)
peptide: TLRK[pY]FHSS
modifications: also: tyrosine phosphorylated in vitro with Fyn kinase
β3 or β5/GST [9]: 5.6
Phos/Unphos [10]: 1.8
β3 or β5/BSA [11]: 7.3

B24: VISY peptide (…, SEQ ID NO:112) (peptide)
peptide: VVISYSMPD
% inhibition of Annexin V binding to GST-β5 [12]: 67%
% inhibition of Annexin V binding to GST-β5 [13]: 45%

B25: CPRECESIC (SEQ ID NO:123) soluble peptide (peptide)
peptide: CPRECESIC
modifications: disulfide (positions not given here); also: mixture of disulfide isomers and dimers
APA enzyme activity on SK-RC-49/APA cells (α-glutamyl-p-nitroanilide, colorimetric), IC50 [14]: 800 µM

Reference: patent EP2028187A1 (BOARD OF REGENTS, THE UNIVERSITY OF TEXAS SYSTEM, dated 2009)
